Measurements reported in PMC5798343.
Each block holds one substance with its values, some of them ahead of it.

Key:
Experiment in all cases: SEC
[1] = molecular target: ΔNp63α R279H in the V603D background
ΔNp63α R304Q/V603D = molecular target: ΔNp63α R304Q/V603D
ΔNp63α V603D = molecular target: ΔNp63α V603D

stoichiometry N [1]: 4
Substance: ΔNp63α R279H in the V603D background (natural protein)

stoichiometry N (ΔNp63α R304Q/V603D): 4
Substance: ΔNp63α R304Q/V603D (natural protein)

stoichiometry N (ΔNp63α V603D): 4
Substance: ΔNp63α V603D (natural protein)
